# Assay results reported in PMC4603797, “The Structural Differences between a Glycoprotein Specific F-Box Protein Fbs1 and Its Homologous Protein FBG3” (PLoS ONE, 2015).
# B1: SBD of Fbs1 (117–297), wild type [murine] / ribonuclease B [modified: a single high-mannose oligosaccharide; a single high-mannose oligosaccharide] [bovine] (parent)
# chain 1: FYFLSKRRRNLLRNPCGEEDLEGWSDVEHGGDGWRVEELPGDNGVEFTQDDSVKKYFASSFEWCRKAQVIDLQAEGYWEELLDTTQPAIVVKDWYSGRTDAGSLYELTVRLLSENEDVLAEFATGQVAVPEDGSWMEISHTFIDYGPGVRFVRFEHGGQDSVYWKGWFGARVTNSSVWVEP
# chain 2: KETAAAKFERQHMDSSTSAASSSNYCNQMMKSRNLTKDRCKPVNTFVHESLADVQAVCSQKNVACKNGQTNCYQSYSTMSITDCRETGSSKYPNCAYKTTQANKHIIVACEGNPYVPVHFDASV
# Variants of: B1
# Test: pull-down
# Settings: with ribonuclease B [modified: a single high-mannose oligosaccharide, parent: 100, read off a plot
row,Variant,percent of parent
1,chain 1 A101C L104K,110%
2,chain 1 T99P L104K,48%
3,chain 1 T99P A101C,25%
4,chain 1 L104K,110%
5,chain 1 A101C,100%
6,chain 1 T99P,49%
